From the supplement of paper PMC12636428

Tested on: Saccharomyces cerevisiae
Test: transcriptional activation domain activity (GFP:mCherry ratio, weighted mean of sorted bins, harmonized to initial dataset scale) (arbitrary fluorescence ratio units); higher = stronger transcriptional activation
Details: beta-estradiol 1 µM; induction time 4 h
In short: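 Values are activation activity, found as the read-weighted mean of bin median fluorescence, averaged across barcodes and then mapped linearly onto the initial dataset scale. Barcoded protein tiles fused to an estradiol-inducible synthetic transcription factor were integrated at the URA3 locus of GFP-reporter yeast diploids. Cells were induced for 4 hours at 30 °C with 1 uM beta-estradiol in SC, sorted into 8 bins by GFP:mCherry ratio, and barcode-sequenced, with tiles under 50 reads discarded.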

| Sequence | transcriptional activation domain activity |
| --- | --- |
| SSGGEKGGAKETEKTPKWYVDGIRYGRATDMKLVKHLISLRVHLSTASLVWIE | 86800 |
| MIFMLDANPSYGTLFILLPYLLSLIIPVLITSVLLSDIFFFFISYCMLCLSCC | 52200 |
| MLLSLGPVLFSFGHPPLIHLCLVPHPVFFSYPFSLLFISPISSLDYFCFSFPF | 45400 |
| GHGTHCSGTVAGKKYGVAKKANVYAVKVLRSNGSGTMSDVVKGVEYAAEQHSE | < 6570 |
| NILFHKLFYAYENVLVIISLIYKKKPLGRLQNTRKCSSINVLCNYILEYGRKY | 42100 |
| IVSPFSTSVRSVSSCVELIRQGRGALATSITGYKYLILYGQVMMMLKIFTFYF | 55600 |
| PAPKKRAPRKRKANAATVEGEAEDNEAEGAAAAAPPKKRARTRKAAAAAAEPS | 41700 |
| LSEPMAKNPYYYLCVLARIVVVKFAMLLRIIYGVYVPIYTYSAYCFLTDITLF | 62900 |
| EVTEAEANGETPNAEGVTPAEGEQKPKKKRKSNRKKKAAATPAEGEAAKEAPA | 34500 |
| NEITIQDLNFLQFSSIPKLWENKTLEPGEEYHHSNGTNTDNNETTGADDTDDN | 24500 |
| MSAPVEEKMAALNVNDKKPAAPKADKKAKKSKGTEGEYPLEFSPAPEYLQHRI | 30300 |
| KPKRKERSDKGKKRGPRAKDGTGTKAAENTLVAKAKPAAKGQEKRRGKADDAK | 16700 |
| MVLVIQFYTVFFSFVYYFIFFSSSNLFSILCPPPPPPIIPIFCPLVGAFGFLF | 42000 |
| GQSGLGLEFNLPDFPLISIIFLIFFITLGLLWLVIVYLANFPDAFTLPVWLWH | 29500 |
| QLVIAVLLLHASAMFTKRVEIPQLKLETAGKLFPCVFVNIVGLVFNTLCLRDV | 43300 |
| SSSSQTSTSASVLLVFGSDERYVKAAGDLLKSRLNVKGGGKGTRWSGKYTGVW | 31200 |
| TLGFVGFVTTLKKVTLRRQFGLFCWIHISLFLIVVSSHFIVNSILEGLIWFWL | 74700 |
| PILIPGGLGVVLLHLPASFTKIECNESGFHQFIKRRCRLLLGVEPGMKVVVLT | 60900 |
| GAPHHNQFLDLNLGLEVYKETGRRVQFLVAAKSMQRKFVGLCCRLIHAIPVVR | 67400 |
| LVVKVLNNTAFSPFFTFFIPVLYWSQNQSWSAPTVFWSTAWFLLVCIFSLLKL | 20900 |
| VIITLICRYEMHSTRLRLRGMSILSFLVNYTGRSMCNIKTTGFLDMIFALRQV | 47100 |

| Sequence | transcriptional activation domain activity |
| --- | --- |
| AKMSVRPTVFGLNYIQLVAKLRLSLEDVRVEYLIYAAQILVLKDQFLRHEFHV | 53000 |
| GAEAGAAVPGKRRNRRGRRGKKKKPGLANGAANGDGVEREDGENGEGEVPKEE | 52100 |
| ASASPARAPAAEVPPPVEIHVGDRCEVDRATGVARGTVRFVGEAEMPPPRPGA | 42400 |
| MCIFFCPVSSLEVIWSVFLVFFYGYIFFTFFFLQCRSMVLIIPFLFTLVFHIF | 42700 |
| TVKNLYLFIIITTVNVVVLLICVAHFALVFMSRAGLSLHARQLTALMHAKFTH | 49000 |
| MLLCLSFLCCYYDISNVSRCYCLFCCIILLFLSCSLLFWLAFSQFLRFFLISF | 62000 |
| PVALLSLCFNLCFQTCMHIVSLDLHYHFPNLSLGRSLNILRAFSFFVMIFFIS | 88100 |
| MSPPCIVLKHLLFFLFSFHRILLQPVRRPSCFHISLYVLVVRLYWFRGILDFC | 38300 |
| LLFFFFFFLLLFFLLFLLLRSRPPSSFSPASIVWPLRAGFGIPLPLFLLFFLP | 20800 |
| EEVKPVMAAETKPEEKKASEEAKPEEKSAETSTDKSSGVNRNAVAAAASAATS | 32400 |
| DNTPVLQEYLAVFRHLLSFHDPELSSHLDTIGFMPDLYAIPWFLTLFTHVFPL | 64500 |
| PFFRVHHLYLPSLLQVVNLAILTSHALFNFIPHFYIVCIIVFWEGLLGGLVYV | 60500 |
| YLEWLLLHHIHTIVGRRKDINWHIVCMDRWNIWYNTLRLSDTFALVGIIISIF | 58500 |
| RDKDDRRRHRDRDDQSSRSHRHHRHRDGDSDRDGDGHRHKRSRHSKAEEAKPS | 28800 |
| KCSKVEPWVINVAAVFPSVFLLGFVENFFWFRRMMLGKGCLRFGTVCWALLFI | 65800 |
| GANAGGARPSSRTSNKKPTSSASPPNDSNDSNKKKDADAKKHDGKKAERGGGR | 29100 |
| CYFLLLLHLPCYRFLFLFLLWLLGQVSHFFLLSHHLIILFWGFVILYSYYIST | 63000 |
| HFILTGSDLGWVLVYFDYDDRIYIFLMEWCKLNCYWIILMYIWNILPTALLLQ | 34300 |
| MLIVSRAGFLAFLLCYLHFCSVVVHVFSLPIGQPVTGYGNGNSVNPRSPIVPS | 52100 |
| QFARFTLEETNLMWKRAANPELTPLTSFPPLWVATRLRLFYVINSILSYFMTT | 60800 |
| MTPRAQDSSSDDKEDKKDTDRAAIRAAQNRKAQRLYRQRKEARVRELEATVAK | 78900 |

| Sequence | transcriptional activation domain activity |
| --- | --- |
| EFVRTSHGRLPAGKRLVKGGYEEDGTPLYHGMAIHEGIKVPGKISHRLYVLQS | 43700 |
| EKRGLDTKNIYVGAEPFDAELRQRLESEQSFSFRSTDIIHFVAMLLIRYLFDL | 59300 |
| GGEGRGGHPAACRGGCFARYPFTPSFLLYFLLLFFYRGVHVPISFFFLFLFLF | 46500 |
| SASSNTRPREPSPEPYRKPREESRDRKRHRSRDRRRDRSPGGKKSRAREGRRD | 35900 |
| GDAGGSSAAEQREAGQERRQRRGAERRQRQSVFEQLGGAEQRGAGRGSAGRGG | < 6570 |
| MEAKEGRPGNAFACERCRKHKVRCVPSDAPGICQRCQRARAPCIEHVARRRPA | 31400 |
| MYNTALITIYLLLLLRRIFFTWSYLAYSFNFIATRVFARITMLMLVELFRQHD | 67400 |
| LYHALRLCLKFFVVSLVADPEFQRELDYFMKNKPWFIRWPAVFSLNMVWNYTK | 42600 |
| MSTVPRLRLHLHLHLHLHLRLHLHLQLSTPKPTEDGAEHGTERGTERGTERGT | 49700 |
| FLSGWPLVLGKFGFDPKFNSCWYLNQDDRLTLIWLWCTFYFWVVASVIYSLLV | 62300 |
| CRLYRLGFFVFLLVLSGLSFLSFYQVYRLFYFLLLFLFFSLFVFFSFCLILYF | 57400 |
| KPKAAAKAAKPAKKAAPEKAEKPEKPEKAKEVEKPEKPEKVSKPAAKKAAPVA | 25000 |
| KSWYFPSLSFFFFSFLFSFLSFAFLSFFLFFSFPFSLLLLYLFLLGLALTADG | 15600 |
| MKQHEYFHLGINLFCPPFFILKSYKEAILSLLLAFKILEIWTFFFIFPLFFLF | 47800 |
| AQSTSVVLVFGSDEKKVKEIGEGLKSKLGIKGGGKGTRWSGKFTGVWKDAREG | 46700 |
| IQDLVFSIIGWFCFGGYTGYNIIQYVNMFGFAEWRRTLPVLYQLMYFNVWMSL | 62900 |
| MWLVKCTYILYIYIFGKWKVREVLELTRVFFFFFSFFFFLFFFPFFFFFFFFF | 59900 |
| SREFLWVGFGVRCMVLAKFQVIKGLKYIRTIIAQKNQSAGLAIELRILMVVWV | 43800 |
| MCFEFHPFSTSMFYLLSILFLDLSFWLSFYFFMSIVHSVALEFLFVFSLNFFV | 42600 |
